Reference: article PMC6097701

Tests used:
[1] = target: HA-tagged human surfeit locus protein 4 (HA-Surf4) (human) (UniProt O15260); assay: binding to immuno-isolated microsomes on magnetic beads, bound GH read by ELISA; titration; microsomes of HA-Surf4-transfected HEK293A cells held on Protein G-Dynabeads with anti-Surf4 carboxy-terminal antibody, CEB-permeabilised; 0, 100, 200, 300, 400 or 800 nM GH for 1 hr at RT in KHMC buffer; GH eluted with … peptide; estimate of the binding constant from half-maximal …
Sequence of UniProt O15260 (O15260 whole entry): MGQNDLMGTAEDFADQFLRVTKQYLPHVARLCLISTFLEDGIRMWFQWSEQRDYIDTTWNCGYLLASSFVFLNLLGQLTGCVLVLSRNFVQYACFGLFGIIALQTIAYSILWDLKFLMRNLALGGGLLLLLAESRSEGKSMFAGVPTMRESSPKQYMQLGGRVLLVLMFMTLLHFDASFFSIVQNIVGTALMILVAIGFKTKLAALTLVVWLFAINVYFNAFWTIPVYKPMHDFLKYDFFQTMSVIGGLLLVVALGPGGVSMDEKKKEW

[2] = target: HA-tagged human surfeit locus protein 4 (HA-Surf4) (human) (UniProt O15260); assay: co-sedimentation; crude microsomes from Surf4^KO HEK293A cells transfected with HA-Surf4, permeabilised with CEB (digitonin) 30 min on ice; 400 nM GH (conditioned media in KHMC buffer) 1 hr on ice; pelleted at >100,000 x g; bound GH released with … peptide and read by hGH ELISA; controls: microsomes without CEB and microsomes of untransfected Surf4^KO cells

Kd [1]: 200 to 300 nM
fold increase in binding after digitonin permeabilisation of the microsomes [2]: > 5 fold
Substance: APV-GH (human growth hormone-1 starting with alanine-proline-valine) (from UniProt P01241 27-217) (natural protein)
